Test results as given in the supplement of paper PMC10567573.
± gives the standard deviation.

Experiment: protein stability index of a GFP-peptide fusion (GPS, HEK-293T) (PSI 1-6); higher = more stable
Conditions: c terminus: a fixed tail appended
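Note: 24-mer peptide tiles fused after GFP, lentivirally expressed, FACS-sorted into six equal bins by GFP/DsRed ratio, decoded by Illumina sequencing, PSI is the read-weighted mean bin number.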

| Sequence | protein stability index (treatment: DMSO) | protein stability index (treatment: MLN4924 1 uM, 8 h) |
| --- | --- | --- |
| IKPPPPLVLNSQQSDTLEQREEHE [RAD54B] | 5.23 ± 0.13 | 5.3 ± 0.34 |
| LLYKDGFSTILHLLLGSPHPAATA [LPCAT4] | 2.71 ± 0.28 | 2.57 ± 0.54 |
| LSQALNGLSDRAKEAKEFLVQLRN [TRIM9] | 3.29 ± 0.41 | 3.26 ± 0.32 |
| DYKLLKPSLAVNLADPYRSLKAPG [JUNB] | 3.41 ± 0.35 | 3.35 ± 0.14 |
| SLTSGACRLDYRRPENRSFYLALY [TCF25] | 2.41 ± 0.66 | 2.57 ± 0.88 |
| ESDTDGAGGNSSSSAAMQSSCSST [CCDC6] | 5.58 ± 0.2 | 5.69 ± 0.3 |
| IVTKFYQLSATGQKLYVRLFQRKL [FAN1] | 3.6 ± 0.98 | 2.57 ± 0.51 |
| TPATPEDPAPLWGPPPAQGSPGDG [EMID1] | 5.3 ± 0.48 | 5.31 ± 0.22 |
| SIPKLKLTRPVPAGADLPPPKIRL [PWWP2B] | 3.45 ± 0.23 | 3.63 ± 0.35 |
| PANSETSDLTLYLVVAVAAVSCVF [PCDHGA10] | 2.69 ± 0.61 | 2.59 ± 0.54 |
| GARLGGFNFVSTPKCSCGQLAAVH [RNF180] | 2.36 ± 0.55 | 2.54 ± 0.21 |
| MTSMSAELKMRAIQAEERLDMEKR [LRRC45] | 4.65 ± 0.19 | 4.9 ± 0.16 |
| ESVTHHDYRMELAQAGTPAPTKPH [SPAG8] | 4.95 ± 0.26 | 4.99 ± 0.12 |
| PLGNTPMMNQSMMGMNMNIGMSAA [CLINT1] | 3.07 ± 0.21 | 2.9 ± 0.24 |
| VFGRLRDENGRPYSPSQYALQYAG [NFE2L1] | 2.86 ± 0.45 | 2.65 ± 0.36 |
| STLKTLLFFTALMITVPIGLYFTT [VMA21] | 2.45 ± 0.19 | 2.31 ± 0.19 |
| MLTVMTKYQANITETQRLGLAMAL [FANCE] | 2.52 ± 0.43 | 2.48 ± 0.25 |
| LVVAVAAVSCVFLAFVIVLLAHRL [PCDHGA10] | 2.9 ± 0.83 | 2.83 ± 0.15 |
| KLRGPEPAATEAYGSGDTPGGPCD [TBX6] | 5.35 ± 0.21 | 5.28 ± 0.31 |
| YVHWPYCEKRCSYCNFNKYIPRRL [RSAD1] | 2.62 ± 0.51 | 2.45 ± 0.34 |
| STDDFFFREDGAYEFNPDFLEEAH [N4BP2L1] | 4.99 ± 0.34 | 4.89 ± 0.17 |
| STELQASQILQNKKHKNSQLDKNS [FAM98B] | 4.91 ± 0.38 | 5.06 ± 0.45 |
| FLTILPEELQSWVRGHHPKSGEEA [ZNF232] | 3.7 ± 0.18 | 3.56 ± 0.35 |

| Sequence | protein stability index (treatment: DMSO) | protein stability index (treatment: MLN4924 1 uM, 8 h) |
| --- | --- | --- |
| YLPTRGGTTMASGGRFRCPSCRHE [TRIM55] | 2.69 ± 0.57 | 3.42 ± 0.43 |
| SGLVRRLWRSRVVPDREEGGSGGG [SMAD6] | 3.91 ± 0.6 | 4.33 ± 0.36 |
| LRHFFLVEDLVDSLKLALLFYILT [RTN2] | 2.79 ± 0.79 | 2.45 ± 0.15 |
| YEKKQTLGQNDTGFSCDGTANTFR [BTBD1] | 4.23 ± 0.3 | 4.15 ± 0.14 |
| GKKVAVVLMDTQGAFDSQSTVKDC [ATL3] | 3.46 ± 0.87 | 3.66 ± 0.44 |
| QKLNVFKNFIGLLQNQNFPYPVLF [NLN] | 2.89 ± 1.1 | 2.76 ± 0.46 |
| GQRFYSRVLSPLHRGPSGHTEASA | 3.74 ± 0.045 | 3.79 ± 0.29 |
| DDRNTACHHGLVADSLQASMEKDA [DLC1] | 5.15 ± 0.13 | 5.16 ± 0.16 |
| MEGLAGYVYKAASEGKVLTLAALL [FEM1B] | 2.22 ± 0.31 | 2.09 ± 0.44 |
| KKREKQREQMEQMKQRIAEENIMK [FAM50A] | 4.8 ± 0.18 | 4.78 ± 0.41 |
| PSFLSQTGHGVSRGPSPVVLGSQD [FCHO1] | 4.33 ± 0.3 | 4.3 ± 0.32 |
| SGHKLYIFLFQDILVLTRPVTRNE [NET1] | 2.6 ± 0.56 | 2.41 ± 0.48 |
| KHPRQTLEVINLLRKHRELCDVVL [KLHL20] | 2.34 ± 0.43 | 2.17 ± 0.25 |
| SKTNLIVNYLPQNMTQDEFKSLFG [ELAVL3] | 2.63 ± 0.28 | 2.79 ± 0.22 |
| SPQPLASSPGPWGLEALAGGDLMP [FCHO1] | 4.05 ± 0.093 | 4 ± 0.27 |
| SLRLCDMRAAALCDKHSKLFEEPE [PPP2R2C] | 4.19 ± 0.26 | 4.08 ± 0.26 |
| PGPSPDVQLATLAQRVKEVLPHVP [AUP1] | 4.14 ± 0.32 | 4.14 ± 0.13 |
| LSKEYWDCLEGKKSKHAPRGTHLW [ELF3] | 2.82 ± 0.45 | 3.17 ± 0.24 |
| MLPGVGVFGTSLTARVIIPLLKDE [GFOD1] | 2.17 ± 0.19 | 2.02 ± 0.16 |
| HLKSSRNSTSVKKKSSRNIFSIVF [P2RY14] | 2.39 ± 0.48 | 2.13 ± 0.55 |
| TKRSSRNPVFQDSWDTESSGSDSG [FAM104A] | 5.3 ± 0.28 | 5.22 ± 0.055 |
| THLLMGLASGRIILILEGGYNLTS [HDAC6] | 2.89 ± 0.46 | 3.02 ± 0.58 |
